Results on two molecules are retold here after US7951356B1, “Tissue factor compositions and kits for coagulation and tumor treatment” (Board of Regents, The University of Texas System, priority 1997, dated 2011).

The subject of series [1] is L540 human Hodgkin's disease tumors. Nature of the series: Anti-tumor effects (tumor growth), L540 tumors. It is filed as in vivo, mouse. The following applies: day 14; FIG. 19. How it is done:
(§1) Accepted animal models were used to determine whether administration of tTF or immunoglobulin-tTF conjugates suppressed the growth of solid tumors in mice. The tumor test systems were: i) L540 human Hodgkin's disease tumors growing in SCID mice; ii) C1300 Muγ (interferon-secreting) neuroblastoma growing in nu/nu mice; iii) H460 human non-small cell lung carcinoma growing in nu/nu mice. To establish solid tumors, 1.5×10^7 tumor cells were injected subcutaneously into the right anterior flank of SCID or BALB/c nu/nu mice (Charles River Labs., Wilmingham, Mass.). When the tumors had grown to various diameters, mice were assigned to different experimental groups, each containing 4 to 9 mice.
(§2) Mice then received an intravenous injection of 0.5 mg/kg of tTF alone or linked to bispecific antibody. Other mice received equivalent quantities of bispecific antibody alone. The injections were performed over ˜45 seconds into one of the tail veins, followed by 200 μl of saline. The infusions were repeated six days later. Perpendicular tumor diameters were measured at regular intervals and tumor volumes were calculated.

The subject of the next series is citrated mouse plasma. The series is described as follows: In vitro coagulation assay: tTF constructs localized on A20 lymphoma cells via bispecific antibody B21-2/10H10. The format is cell-based. Particulars: for time in which plasma coagulated: FIG. 20; for coagulation time: FIG. 4B. The procedure:
This assay was used to verify that tTF, various derivatives and mutants thereof, and immunoglobulin-tTF conjugates acquire coagulation inducing activity once localized at a cell surface. A20 lymphoma cells (I-A^d positive) (2×10^6 cells/ml, 50 μl) were incubated for 1 h at room temperature with a bispecific antibody (50 μg/ml, 25 μl) consisting of a Fab′ arm of the B21-2 antibody directed against I-A^d linked to a Fab′ arm of the 10H10 antibody directed against a non-inhibitory epitope on tTF. The cells were washed at room temperature and varying concentrations of tTF, derivatives or mutants thereof, or immunoglobulin-tTF conjugates were added for 1 hour at room temperature. The bispecific antibody captures the tTF or tTF linked to immunoglobulin, bringing it into close approximation to the cell surface, where coagulation can proceed.
The cells were washed again at room temperature, resuspended in 75 μl of PBS and warmed to 37° C. […] The time for the first fibrin strands to form was recorded. Clotting time was plotted against tTF concentration and curves compared with standard curves prepared using standard tTF219 preparations.

Series [2] relates to C1300 Muγ mouse neuroblastoma. The series is described as follows: In vivo tumor thrombosis, C1300 Muγ tumors. The text has this: (§3) Tumor test systems were of four types: i) 3LL mouse lung carcinoma growing subcutaneously in C57BL/6 mice; ii) C1300 mouse neuroblastoma growing subcutaneously in BALB/c nu/nu mice; iii) HT29 human colorectal carcinoma growing subcutaneously in BALB/c nu/nu mice; and iv) C1300 Muγ mouse neuroblastoma growing subcutaneously in BALB/c nu/nu mice. The C1300 Muγ tumor is an interferon-γ secreting transfectant derived from the C1300 tumor (Watanabe et al., 1989).
Further, the C1300 (Muγ) tumor model of (Burrows, et al., 1992; incorporated herein by reference) was employed and modified as follows: (i) antibody B21-2 was used to target I-A^d; (ii) C1300(Muγ) tumor cells, a subline of C1300(Muγ) 12 tumor cells, that grew continuously in BALB/c nu/nu mice were used; and (iii) tetracycline was […] the mice's drinking water to prevent gut bacteria from inducing I-A^d on the gastrointestinal epithelium.
(§4) To establish tumors, 10^6 to 1.5×10^7 tumor cells were injected subcutaneously into the right anterior flank of the mice. When tumors had grown to various sizes, mice were randomly assigned to different study groups. Mice then received an intravenous injection of 0.5 mg/kg of tTF alone or linked to IgG, Fab′, or bispecific antibody. Other mice received equivalent quantities IgG, Fab′ or bispecific antibody alone. The injections were performed slowly into one of the tail veins over approximately 45 seconds, usually followed by 200 μl of saline.
(§5) Twenty-four hours after being injected with tTF or immunoglobulin-tTF conjugates, the mice were anesthetized with metophane and were exsanguinated by perfusion with heparinized saline. Tumors and normal tissues were excised and immediately fixed in 3% (v/v) formalin. Paraffin sections were cut and stained with hematoxylin and eosin. Blood vessels having open lumens containing erythrocytes and blood vessels containing thrombi were counted. Paraffin sections were cut and stained with hematoxylin and eosin or with Martius Scarlet Blue (MSB) trichrome for the detection of fibrin.

Series [3] has as its system C1300 mouse neuroblastoma. Nature of the series: In vivo tumor thrombosis, C1300 tumors.
Excerpt: as §3, §4
(§6) Twenty-four hours after being injected with tTF or immunoglobulin-tTF conjugates, the mice were anesthetized with metophane and were exsanguinated by perfusion with heparinized saline. Tumors and normal tissues were excised and immediately fixed in 3% (v/v) formalin. […] Blood vessels having open lumens containing erythrocytes and blood vessels containing thrombi were counted. […]

The subject of the next series is 3LL mouse lung carcinoma. The series is described as follows: In vivo tumor thrombosis, 3LL tumors. Particulars: C57BL/6 mice, large (>800 mm^3) tumors; FIG. 11.
Excerpt: as §3, §4, §6

Series [4] has as its system C1300 Muγ (interferon-secreting) neuroblastoma. The series is described as follows: Anti-tumor effects (tumor growth), C1300 Muγ tumors. It is filed as in vivo, mouse. How it is done:
as §1, §2

Series [5] concerns H460 human non-small cell lung carcinoma. Nature of the series: Anti-tumor effects (tumor growth), H460 tumors. Particulars: FIG. 13. The format is in vivo, mouse. The procedure: as §1, §2
Series [6] relates to HT29 human colorectal carcinomas. The series is described as follows: Anti-tumor effects (tumor growth), HT29 tumors. It is filed as in vivo, mouse. Particulars: nu/nu mice, large (1200 mm^3) tumors, intravenous; FIG. 14. The procedure: Anti-tumor effects were also observed in mice bearing HT29 human colorectal carcinomas (FIG. 14). Nu/nu mice bearing large (1200 mm^3) tumors on their flanks were injected intravenously with tTF219 or PBS (control), and growth of the tumors was monitored each day for 10 days. The tumors in the tTF219 treated mice discontinued growth for about 7 days after treatment, whereas the tumors in mice treated with PBS continued to grow unchecked.

Series [7] has as its system HT29 (human colorectal carcinoma) xenograft. The series is described as follows: Tumor necrosis in HT29 xenografts 24 hours after treatment (Example XII). It is filed as in vivo, mouse. The following applies: 24 hours after intravenous injection; tumors 0.5 to 1.0 cm^3; FIG. 23. How it is done:
For these studies, the inventors chose the HT29 (human colorectal carcinoma) xenograft tumor model. HT29 cells (10^7 cells/mouse) were subcutaneously injected into BALB/c nu/nu mice. Tumor dimensions were monitored and animals were treated when the tumor size was between 0.5 and 1.0 cm^3.
Animals were sacrificed 24 hours after treatment, perfused with saline and heparin and exsanguinated. Tumors and organs were collected, formalin fixed and histological sections were prepared. The average area of necrosis in sections of the tumors was quantified and calculated as a percentage of the total area of tumor on the section.

A short description of series [8]: Toxicity and histology of normal organs in treated tumor-bearing mice. The following applies: 30 minutes or 24 hours after administration. It is filed as in vivo, mouse.
Excerpt: as §5

The subject of another series is factor X. Particulars: appropriate phospholipid membrane environment; Ruf, et al., 1991b; cited from earlier work.

`COc1cc([C@@H]2c3cc4c(cc3[C@@H](O[C@@H]3O[C@@H]5CO[C@@H](C)O[C@H]5[C@H](O)[C@H]3O)[C@H]3COC(=O)[C@H]23)OCO4)cc(OC)c1O` [etoposide] showed an average tumor volume in [1] of 1400 mm^3.

B1: tTF219: truncated Tissue Factor: residues 1-219 of TF plus an additional glycine at the N-terminus; SEQ ID NO:1 (protein)
chain: GSGTTNTVAAYNLTWKSTNFKTILEWEPKPVNQVYTVQISTKSGDWKSKCFYTTDTECDLTDEIVKDVKQTYLARVFSYPAGNVESTGSAGEPLYENSPEFTPYLETNLGQPTIQSFEQVGTKVNVTVEDERTLVRRNNTFLSLRDVFGKDLIYTLYYWKSSSSGKKTAKTNTNEFLIDVDKGENYCFSVQAVIPSRTVNRKSTDSPVECMGQEKGEFRE
In the case of B1, the “time in which plasma coagulated” value was determined as 60 s in the series on citrated mouse plasma (10^−10 M tTF219, absence of Factor VIIa) and 20 s in the series with citrated mouse plasma (10^−10 M tTF219, presence of 13.5 nM Factor VIIa). Moreover, the figures for the coagulation time with citrated mouse plasma (20,000 molecules per cell) and in the series on citrated mouse plasma (300,000 molecules of tTF per cell) were 140 s and 40 s, respectively. For the same molecule, the “effect on coagulation time” value with citrated mouse plasma (A20 cells incubated without both specificities needed to bind tTF to the cells, FIG. 4A) was “no effect on coagulation time”. In addition, the “increase in coagulation-inducing potency of tTF” value with citrated mouse plasma (presence of 0.1 nM Factor VIIa) was 2-5 fold. In the series on citrated mouse plasma (tTF bound to A20 cells by B21-2/10H10, mouse plasma, FIG. 4A), the “time until fibrin strands were visible after the addition of plasma” value is 36 s. The “thrombosis of tumor vessels” value in series [2] (24 hours after injection, large tumors, FIG. 9) is “practically all vessels in all regions of the tumor were thrombosed”; in [3] (large tumors (>1000 mm^3), 24 hours after injection, FIG. 10), “virtually all vessels were thrombosed”. Also, the “effect on tumor vessels” value in series [2] (small (<500 mm^3) tumors) and in series [3] (small (<500 mm^3) tumors) was “largely unaffected” in each case. For the same molecule, the “gross appearance of tumors” value in series [2] (starting within 30 minutes, progressively more marked up to 24 hours) is “blackened, bruised appearance”. For the same molecule, in the series on 3LL mouse lung carcinoma, the “tumor vessels thrombosed, on average” value was found to be 62%. In addition, the “tumor size relative to controls receiving diluent alone” value in series [4] (fourteen days after the first injection, small (300 mm^3) tumors, treatment repeated 6 days later, FIG. 18) worked out at 75%. In [4] (large (0.8 to 1.0 cm diameter) tumors, two intravenous injections 6 days apart, FIG. 12A), the tumor response entry is given as “grew significantly more slowly”. In addition, in series [4] (one week after the second treatment, small (300 mm^3) tumors at start), the “tumor size relative to tumors in mice receiving diluent alone” value is on record as 60%. Also, the “effect of the first treatment on tumor growth” value in [4] (small (300 mm^3) tumors, 16-20 μg intravenously, FIG. 12B) was “slight inhibitory effect on tumor growth”. Moreover, in series [4] (treatment repeated one week later, FIG. 12B), the “effect of the second treatment on tumor growth” value was “substantially greater, statistically significant (P<0.01), effect on tumor growth”. Also, in series [5] (second treatment given when tumors were 900 mm^3), the “tumor volume to which tumors regressed before regrowing” value is recorded as 550 mm^3. For the same molecule, in series [5] (tumors small (250 mm^3)), the “effect of the first treatment” value is “little effect on growth rate”. The “time for which tumors discontinued growth after treatment” value in [6] is given as “about 7 days”. Moreover, the “necrosis in tumor sections, in words” value in [7] is “some necrosis”. Besides, the “thrombi or abnormalities in paraffin sections of liver, kidney, lung, intestine, heart, brain, adrenals, pancreas, spleen” value in series [8] was “neither thrombi, nor histological or morphological abnormalities were visible”. The “times less factor X-activating activity relative to native transmembrane TF” value in the series with factor X is “approximately 10^5 times”.
